Results from US8206955B2, “Production of monatin and monatin precursors” (Cargill, Incorporated, priority 2003, dated 2012).
Residue numbers refer to the chain shown, from its start.

B1: R. sphaeroides 35053 msa: R. sphaeroides 35053 multiple substrate aminotransferase (SEQ ID NOS: 13 and 14) (protein)
chain: MREPLALEIDPGHGGPLFLAIAEAITLDITRGRLRPGARLPGTRALARALGVHRNTVDAAYQELLTQGWLQAEPARGTFVAQDLPQGMLVHRPAPAPVEPVAMRAGLAFSDGAPDPELVPDKALARAFRRALLSPAFRAGADYGDARGTSSLREALAAYLASDRGVVADPARLLIARGSQMALFLVARAALAPGEAIAVEEPGYPLAWEAFRAAGAEVRGVPVDGGGLRIDALEAALARDPRIRAVYVTPHHQYPTTVTMGAARRLQLLELAERHRLALIEDDYDHEYRFEGRPVLPLAARAPEGLPLIYVGSLSKLLSPGIRLGYALAPERLLTRMAAARAAIDRQGDAPLEAALAELIRDGDLGRHARKARRVYRARRDLLAERLTAQLAGRAAFDLPAGGLALWLRCAGVSAETWAEAAGQAGLALLPGTRFALESPAPQAFRLGYAALDEGQIARAVEILARSFPG
modifications: R. sphaeroides
B2: L. amylovorus araT: Lactobacillus amylovorus aromatic aminotransferase (araT, SEQ ID NOS: 11 and 12), novel (protein, listed as Lactobacillus amylovorus)
chain: MPELANDLGLSKKITDVKASGIRIFDNKVSAIPGIIKLTLGEPDMNTPEHVKQAAIKNIADNDSHYAPQKGKLELRKAISKYLKKITGIEYDPETEIVVTVGATEAINATLFAITNPGDKVAIPTPVFSLYWPVATLADADYVLMNTAEDGFKLTPKKLEETIKENPTIKAVILNYPTNPTGVEYSEDEIKALAKVIKDNHLYVITDEIYSTLTYGVKHFSIASLIPERAIYISGLSKSHAMTGYRLGYVAGPAKIMAEIGKVHGLMVTTTTDSSQAAAIEALEHGLDDPEKYREVYEKRRDYVLKELAEIEMQAVKPEGAFYIFAKIPAKYGKDDMKFALDLAFKEKVGITPGSAFGPGGEGHIRLSYASSDENLHEAMKRMKKVLQEDE
B3: R. sphaeroides 2.4.1 tatA: Rhodobacter sphaeroides strain 2.4.1 tyrosine aminotransferase (SEQ ID NOS: 3 and 4) (protein)
chain: MRSTTAPGPSGACMTISRSRKDDEGMLTALKPQPADKILQLIQMFREDARADKIDLGVGVYKDPTGLTPVMRAVKAAEKRLWEVETTKTYTGLADEPAYNAAMAKLILAGAVPADRVASVATPGGTGAVRQALELIRMASPEATVWISNPTWPNHLSIVKYLGIPMREYRYFDAETGAVDAEGMMEDLAQVKAGDVVLLHGCCHNPTGANPNPVQWLAICESLARTGAVPLIDLAYQGFGDGLEMDAAATRLLATRLPEVLIAASCSKNFGIYRERTGILIAIGEAAGRGTVQANLNFLNRQNYSFPPDHGARLVTMILEDETLSADWKAELEEVRLNMLTLRRQLADALQAETGSNRFGFVAEHRGMFSRLGITPAEVERLRTEHGVYMVGDSRLNIAGLNRTTVPVLARAVAKVLRG
modifications: Rhodobacter sphaeroides
B4: R. sphaeroides 35053 tatA: R. sphaeroides 35053 tyrosine aminotransferase (SEQ ID NOS: 5 and 6) (protein)
chain: B3 chain with D95G, M184L, I219V
modifications: Rhodobacter sphaeroides
B5: B. subtilis araT: Bacillus subtilis aromatic aminotransferase (araT, SEQ ID NOS: 9 and 10) (protein, listed as Bacillus subtilis)
chain: MEHLLNPKAREIEISGIRKFSNLVAQHEDVISLTIGQPDFFTPHHVKAAAKKAIDENVTSYTPNAGYLELRQAVQLYMKKKADFNYDAESEIIITTGASQAIDAAFRTILSPGDEVIMPGPIYPGYEPIINLCGAKPVIVDTTSHGFKLTARLIEDALTPNTKCVVLPYPSNPTGVTLSEEELKSIAALLKGRNVFVLSDEIYSELTYDRPHYSIATYLRDQTIVINGLSKSHSMTGWRIGFLFAPKDIAKHILKVHQYNVSCASSISQKAALEAVTNGFDDALIMREQYKKRLDYVYDRLVSMGLDVVKPSGAFYIFPSIKSFGMTSFDFSMALLEDAGVALVPGSSFSTYGEGYVRLSFACSMDTLREGLDRLELFVLKKREAMQTINNGV
B6: Porcine type II-A: Glutamic-oxaloacetic transaminase from pig heart (type IIa), Sigma G7005 (protein, UniProt P00503 2-413, looked up)
Aspartate aminotransferase, …: APPSVFAEVPQAQPVLVFKLIADFREDPDPRKVNLGVGAYRTDDCQPWVLPVVRKVEQRIANDSSLNHEYLPILGLAEFRTCASRLALGDDSPALQEKRVGGVQSLGGTGALRIGAEFLARWYNGTNNKDTPVYVSSPTWENHNGVFTTAGFKDIRSYRYWDTEKRGLDLQGFLSDLENAPEFSIFVLHACAHNPTGTDPTPEQWKQIASVMKRRFLFPFFDSAYQGFASGNLEKDAWAIRYFVSEGFELFCAQSFSKNFGLYNERVGNLTVVAKEPDSILRVLSQMEKIVRVTWSNPPAQGARIVARTLSDPELFHEWTGNVKTMADRILSMRSELRARLEALKTPGTWNHITDQIGMFSFTGLNPKQVEYLINEKHIYLLPSGRINMCGLTTKNLDYVATSIHEAVTKIQ
B7: Porcine type I: commercial porcine glutamate-oxaloacetate aminotransferase, Sigma G2751 (protein, UniProt P00503 2-413, looked up)
Aspartate aminotransferase, …: B6 Aspartate aminotransferase, …
B8: E. coli tyrB: E. coli tyrosine aminotransferase (tyrB, SEQ ID NOS: 31 and 32) (protein)
chain: VFQKVDAYAGDPILTLMERFKEDPRSDKVNLSIGLYYNEDGIIPQLQAVAEAEARLNAQPHGASLYLPMEGLNCYRHAIAPLLFGADHPVLKQQRVATIQTLGGSGALKVGADFLKRYFPESGVWVSDPTWENRVAIFAGAGFEVSTYPWYDEATNGVRFNDLLATLKTLPARSIVLLHPCCHNPTGADLTNDQWDAVIEILKARELIPFLDIAYQGFGAGMEEDAYAIRAIASAGLPALVSNSFSKIFSLYGERVGGLSVMCEDAEAAGRVLGQLKATVRRNYSSPPNFGAQVVAAVLNDEALKASWLAEVEEMRTRILAMRQELVKVLSTEMPERNFDYLLNQRGMFSYTGLSAAQVDRLREEFGVYLIASGRMCVAGLNTANVQRVAKAFAAVM
modifications: E. coli
B9: E. coli aspC: Escherichia coli aspartate aminotransferase (aspC) (protein, UniProt P00509 1-396, looked up)
Aspartate aminotransferase: MFENITAAPADPILGLADLFRADERPGKINLGIGVYKDETGKTPVLTSVKKAEQYLLENETTKNYLGIDGIPEFGRCTQELLFGKGSALINDKRARTAQTPGGTGALRVAADFLAKNTSVKRVWVSNPSWPNHKSVFNSAGLEVREYAYYDAENHTLDFDALINSLNEAQAGDVVLFHGCCHNPTGIDPTLEQWQTLAQLSVEKGWLPLFDFAYQGFARGLEEDAEGLRAFAAMHKELIVASSYSKNFGLYNERVGACTLVAADSETVDRAFSQMKAAIRANYSNPPAHGASVVATILSNDALRAIWEQELTDMRQRIQRMRQLFVNTLQEKGANRDFSFIIKQNGMFSFSGLTKEQVLRLREEFGVYAVASGRVNVAGMTPDNMAPLCEAIVAVL

Test: tryptophan aminotransferase activity, production of indole-pyruvic acid
Format: biochemical
Settings: cell extracts (CE); 5 mM L-tryptophan, 30 minutes at 30° C.
Procedure: Cell extracts were analyzed by SDS-PAGE, and assayed for tryptophan aminotransferase activity by following production of indole-pyruvic acid using the following protocol. One mL reactions were carried out in 50 mM sodium tetraborate (pH 8.5), 0.5 mM EDTA, 0.5 mM sodium arsenate, 50 μM pyridoxal phosphate, 5 mM α-ketoglutarate, and 5 mM L-tryptophan. The reactions were initiated by the addition of cell free extracts or purified enzyme and were incubated 30 minutes at 30° C. 20% TCA (200 μL) was added to stop the reaction, and the precipitated protein was removed by centrifugation. The absorbance at 327 nm was measured and compared to a standard curve of freshly prepared indole-3-pyruvate in the assay buffer. Control reactions without the substrate tryptophan or using cell-free extracts from clones transformed with pET30a alone were also performed.
Due to background from the native E. coli aminotransferases in cell extracts, the recombinant fusion proteins each containing an aminotransferase protein fused to the pET30 amino terminal HIS6-Tag/S-Tag (6×HIS tag disclosed as SEQ ID NO: 90) were purified using immobilized metal affinity chromatography with His-Bind cartridges following manufacturer's protocols (Novagen, Madison, Wis.). The HIS6-Tag sequence (SEQ ID NO: 90) of the fusion proteins binds to the divalent Ni^2+ cations immobilized on IDA-based His-Bind resin. The eluent fractions were desalted on PD-10 (Amersham Biosciences, Piscataway, N.J.) columns and eluted in 50 mM Tris, pH 7.0. Purified proteins were analyzed by SDS-PAGE and assayed for aminotransferase activity.
Table 1 lists the specific activities measured in micrograms of indole-3-pyruvate (I3P) formed per milligram protein per minute. […] In these cases a ‘>’ precedes the specific activity number.

| Molecule | Specific Activity [μg I3P/mg protein/min] |
| --- | --- |
| B1 | 3.97 |
| B2 | 1.26 |
| B3 | >41.2 |
| B4 | >62.3 |
| B5 | 0 |

Same assay, conditions: commercial enzyme (Sigma)

| Molecule | Specific Activity [μg I3P/mg protein/min] |
| --- | --- |
| B6 | 1.5 |
| B7 | 1 |

Same assay, conditions: purified (P); 5 mM L-tryptophan, 30 minutes at 30° C.

| Molecule | Specific Activity |
| --- | --- |
| B8 | 1 μg I3P/mg protein/min |
| B1 | 0 μg I3P/mg protein/min |
| B9 | 800 μg I3P/mg protein/min |
| B2 | 0 μg I3P/mg protein/min |
| B3 | 1086 μg I3P/mg protein/min |
| B4 | >486 μg I3P/mg protein/min |
| B5 | 1.5–4.5 μg I3P/mg protein/min |

Same assay, conditions: recombinant clones expressed in E. coli

| Molecule | tryptophan aminotransferase activity (in words) |
| --- | --- |
| B9 | significant levels of tryptophan aminotransferase activity |
| B5 | little enzymatic activity |
